In doi:10.1101/2024.05.29.596450v1:

Substrate: O=C(Cc1cccs1)N[C@@H]1C(=O)N2C(C(=O)O)=C(/C=C/c3ccc([N+](=O)[O-])cc3[N+](=O)[O-])CS[C@H]12
Assay: purified protein
Settings: nitrocefin 50-200 μM, phosphate buffer pH 7.4

B1: PBP2a (Staphylococcus aureus) (protein)
chain: YASKDKEINNTIDAIEDKNFKQVYKDSSYISKSDNGEVEMTERPIKIYNSLGVKDINIQDRKIKKVSKNKKRVDAQYKIKTNYGNIDRNVQFNFVKEDGMWKLDWDHSVIIPGMQKDQSIHIENLKSERGKILDRNNVELANTGTAYEIGIVPKNVSKKDYKAIAKELSISEDYIKQQMDQKWVQDDTFVPLKTVKKMDEYLSDFAKKFHLTTNETESRNYPLEKATSHLLGYVGPINSEELKQKEYKGYKDDAVIGKKGLEKLYDKKLQHEDGYRVTIVDDNSNTIAHTLIEKKKKDGKDIQLTIDAKVQKSIYNNMKNDYGSGTAIHPQTGELLALVSTPSYDVYPFMYGMSNEEYNKLTEDKKEPLLNKFQITTSPGSTQKILTAMIGLNNKTLDDKTSYKIDGKGWQKDKSWGGYNVTRYEVVNGNIDLKQAIESSDNIFFARVALELGSKKFEKGMKKLGVGEDIPSDYPFYNAQISNKNLDNEILLADSGYGQGEILINPVQILSIYSALENNGNINAPHLLKDTKNKVWKKNIISKENINLLTDGMQQVVNKTHKEDIYRSYANLIGKSGTAELKMKQGETGRQIGWFISYDKDNPNMMMAINVKDVQDKGMASYNAKISGKVYDELYENGNKKYDIDE
Km: 29.28 µM | kcat: 259.1 s⁻¹
